Substitutions are numbered along the chain they refer to.
T1: human GIP receptor (human) (UniProt P48546)
T1 sequence (looked up): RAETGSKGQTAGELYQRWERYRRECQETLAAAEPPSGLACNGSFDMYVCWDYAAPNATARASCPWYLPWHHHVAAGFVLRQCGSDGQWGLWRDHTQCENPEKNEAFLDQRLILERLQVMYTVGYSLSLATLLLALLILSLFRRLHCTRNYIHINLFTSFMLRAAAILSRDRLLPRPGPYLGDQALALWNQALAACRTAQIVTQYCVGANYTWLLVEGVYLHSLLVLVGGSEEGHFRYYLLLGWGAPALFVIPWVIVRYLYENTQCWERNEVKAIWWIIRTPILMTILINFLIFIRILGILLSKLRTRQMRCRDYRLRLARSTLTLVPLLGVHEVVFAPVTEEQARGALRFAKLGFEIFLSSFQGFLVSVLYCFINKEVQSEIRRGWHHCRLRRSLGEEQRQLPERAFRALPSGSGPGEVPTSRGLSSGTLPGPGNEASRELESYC

B1: Example 1100 (peptide)
chain: YXQGTFTSDXSQXLDXKAQXQFIEXLIAXGPSSGEPPPSGSEE
modifications: non-natural residues; Lys acylated AEEA-γGlu-C18 diacid; C-terminal amide; synthetic construct; SITE 2: note = 2-Aminoisobutyric Acid; SITE 10: note = 3-(4-Pyridyl)-L-alanine; SITE 13: note = alpha-methyl-leucine; SITE 16: note = L-ornithine; SITE 17: note = Lysine is chemically modified through conjugation of the epsilon-amino group of the Lysine side chain with (2-[2-(2-
B2: Example 1101 (peptide)
chain: B1 chain with Q21A, X25Y
modifications: non-natural residues, γGlu-C18 diacid lysine acylation, C-terminal amide; synthetic construct; SITE 2: note = 2-Aminoisobutyric Acid; SITE 10: note = 3-(4-Pyridyl)-L-alanine; SITE 13: note = alpha-methyl-leucine; SITE 16: note = L-ornithine; SITE 17: note = Lysine is chemically modified through conjugation of the epsilon-amino group of the Lysine side chain with D-Glutami
B3: Example 1102 (peptide)
chain: B1 chain with Q21A, X25Y, A28Q
modifications: not fully specified; non-natural residues, γGlu-C18 diacid acyl on K, C-terminal amide; synthetic construct; SITE 2: note = 2-Aminoisobutyric Acid; SITE 10: note = 3-(4-Pyridyl)-L-alanine; SITE 13: note = alpha-methyl-leucine; SITE 16: note = L-ornithine; SITE 17: note = Lysine is chemically modified through conjugation of the epsilon-amino group of the Lysine side chain with D-Glutami
B4: Example 1103 (peptide)
chain: B1 chain with Q21A, A28E
modifications: not fully specified; Aib, 4Pal, Orn, Me4Pal, αMeY; lipidated Lys; C-terminal amide; synthetic construct; SITE 2: note = 2-Aminoisobutyric Acid; SITE 10: note = 3-(4-Pyridyl)-L-alanine; SITE 13: note = alpha-methyl-leucine; SITE 16: note = L-ornithine; SITE 17: note = Lysine is chemically modified through conjugation of the epsilon-amino group of the Lysine side chain with D-Glutami
B5: Example 1104 (peptide)
chain: B1 chain with A28E
modifications: not fully specified; non-natural residues; Lys acylated C18 diacid via γGlu; C-term amide; synthetic construct; SITE 2: note = 2-Aminoisobutyric Acid; SITE 10: note = 3-(4-Pyridyl)-L-alanine; SITE 13: note = alpha-methyl-leucine; SITE 16: note = L-ornithine; SITE 17: note = Lysine is chemically modified through conjugation of the epsilon-amino group of the Lysine side chain with D-Glutami
B6: Example 1105 (peptide)
chain: B1 chain with Q21A
modifications: not fully specified; non-natural residues; Lys acylated γGlu-C18 diacid; C-terminal amide; synthetic construct; SITE 2: note = 2-Aminoisobutyric Acid; SITE 10: note = 3-(4-Pyridyl)-L-alanine; SITE 13: note = alpha-methyl-leucine; SITE 16: note = L-ornithine; SITE 17: note = Lysine is chemically modified through conjugation of the epsilon-amino group of the Lysine side chain with D-Glutami
B7: Example 106 (peptide)
chain: YXQGTFTSDFSXXLDKKAQXAFIEYLLAGGTSSGEPPPSGE
modifications: synthetic construct; SITE 2: note = 2-Aminoisobutyric Acid; SITE 12: note = L-ornithine; SITE 13: note = alpha-methyl-leucine; SITE 17: note = Lysine is chemically modified through conjugation of the epsilon-amino group of the Lysine side chain with (2-[2-(2-Amino-ethoxy)-ethoxy]-acetyl)-(gamma-Glu)
B8: Example 1106 (peptide)
chain: B1 chain
modifications: not fully specified; Aib, 4Pal, Orn, Me4Pal, αMeY; lipidated Lys; C-terminal amide; synthetic construct; SITE 2: note = 2-Aminoisobutyric Acid; SITE 10: note = 3-(4-Pyridyl)-L-alanine; SITE 13: note = alpha-methyl-leucine; SITE 16: note = L-ornithine; SITE 17: note = Lysine is chemically modified through conjugation of the epsilon-amino group of the Lysine side chain with D-Glutami
B9: Example 1123 (peptide)
chain: YXQGTFTSDXSQXLDKKAQXAFIEXLIEXGPSSGEPPPSGE
modifications: Aib, 4Pal, αMeL, Me4Pal; acylated Lys; C-terminal amide; synthetic construct; SITE 2: note = 2-Aminoisobutyric Acid; SITE 10: note = 3-(4-Pyridyl)-L-alanine; SITE 13: note = alpha-methyl-leucine; SITE 17: note = Lysine is chemically modified through conjugation of the epsilon-amino group of the Lysine side chain with (gamma-Glu)2-CO-(CH2)16-CO2H; SITE 20:
B10: Example 1124 (peptide)
chain: B1 chain with X16K, Q21A, A28E, S41E
modifications: non-natural residues (Aib, 4Pal, Me4Pal, αMeL); lipidated Lys; C-amide; synthetic construct; SITE 2: note = 2-Aminoisobutyric Acid; SITE 10: note = 3-(4-Pyridyl)-L-alanine; SITE 13: note = alpha-methyl-leucine; SITE 17: note = Lysine is chemically modified through conjugation of the epsilon-amino group of the Lysine side chain with (gamma-Glu)2-CO-(CH2)16-CO2H; SITE 20:
B11: Example 1125 (peptide)
chain: B1 chain with X16K, Q21A, A28E
modifications: Aib, 4Pal, Me4Pal, αMeL; lipidated Lys; C-terminal amide; synthetic construct; SITE 2: note = 2-Aminoisobutyric Acid; SITE 10: note = 3-(4-Pyridyl)-L-alanine; SITE 13: note = alpha-methyl-leucine; SITE 17: note = Lysine is chemically modified through conjugation of the epsilon-amino group of the Lysine side chain with (gamma-Glu)2-CO-(CH2)16-CO2H; SITE 20:
B12: Example 1128 (peptide)
chain: B1 chain with E24Q, S41G, E42G
modifications: Aib, 4Pal, αMeL, Orn, Me4Pal, αMeY; acylated lysine; amide; synthetic construct; SITE 2: note = 2-Aminoisobutyric Acid; SITE 10: note = 3-(4-Pyridyl)-L-alanine; SITE 13: note = alpha-methyl-leucine; SITE 16: note = L-ornithine; SITE 17: note = Lysine is chemically modified through conjugation of the epsilon-amino group of the Lysine side chain with D-Glutami
B13: Example 1129 (peptide)
chain: B1 chain with E24Q, A28E, S41G, E42G
modifications: non-natural residues; lysine acylated with C18 diacid; C-terminal amide; synthetic construct; SITE 2: note = 2-Aminoisobutyric Acid; SITE 10: note = 3-(4-Pyridyl)-L-alanine; SITE 13: note = alpha-methyl-leucine; SITE 16: note = L-ornithine; SITE 17: note = Lysine is chemically modified through conjugation of the epsilon-amino group of the Lysine side chain with D-Glutami
B14: Example 1130 (peptide)
chain: B1 chain with Q21A, E24Q, S41G, E42G
modifications: Lys acylated γGlu-C18 diacid; non-natural residues; C-amide; synthetic construct; SITE 2: note = 2-Aminoisobutyric Acid; SITE 10: note = 3-(4-Pyridyl)-L-alanine; SITE 13: note = alpha-methyl-leucine; SITE 16: note = L-ornithine; SITE 17: note = Lysine is chemically modified through conjugation of the epsilon-amino group of the Lysine side chain with D-Glutami
B15: Example 1131 (peptide)
chain: B1 chain with Q21A, E24Q, A28E, S41G, E42G
modifications: not fully specified; non-natural residues, C18 diacid acylation, C-terminal amide; synthetic construct; SITE 2: note = 2-Aminoisobutyric Acid; SITE 10: note = 3-(4-Pyridyl)-L-alanine; SITE 13: note = alpha-methyl-leucine; SITE 16: note = L-ornithine; SITE 17: note = Lysine is chemically modified through conjugation of the epsilon-amino group of the Lysine side chain with D-Glutami

These binders were tested against hGLP-1R (Homo sapiens, UniProt P43220) (assay: cell-based or functional assay).
Chain of hGLP-1R (P43220 24-463): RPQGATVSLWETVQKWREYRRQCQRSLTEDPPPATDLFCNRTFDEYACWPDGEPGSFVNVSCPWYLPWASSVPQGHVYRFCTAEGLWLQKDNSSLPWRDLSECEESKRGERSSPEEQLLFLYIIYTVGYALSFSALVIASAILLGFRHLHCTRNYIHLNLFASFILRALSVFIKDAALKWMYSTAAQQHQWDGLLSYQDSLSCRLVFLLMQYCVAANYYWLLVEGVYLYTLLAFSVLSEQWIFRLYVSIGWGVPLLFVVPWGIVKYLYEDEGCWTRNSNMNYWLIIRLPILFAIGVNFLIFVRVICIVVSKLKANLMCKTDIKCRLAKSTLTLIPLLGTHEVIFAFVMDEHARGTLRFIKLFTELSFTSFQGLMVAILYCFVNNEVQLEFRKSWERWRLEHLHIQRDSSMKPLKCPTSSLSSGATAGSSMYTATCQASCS

| Binder | Relative cAMP EC50 [nM] | cAMP Rel EC50 (1% HSA) [nM] | cAMP Rel EC50, nM (in the presence of 1% HSA) [nM] |
| --- | --- | --- | --- |
| B1 | 0.514 | 77.2 | – |
| B2 | 1.75 | 246 | – |
| B3 | 2.18 | 295 | – |
| B4 | 1.06 | 183 | – |
| B5 | 1.7 | 272 | – |
| B6 | 0.875 | 92.5 | – |
| B7 | 3.94 | – | 977 |
| B8 | 0.87 | 119 | – |
| B9 | 4.47 | 191 | – |
| B10 | 10.1 | 304 | – |
| B11 | 8.26 | 243 | – |
| B12 | 0.486 | 52.8 | – |
| B13 | 0.501 | 56.6 | – |
| B14 | 0.641 | 44.5 | – |
| B15 | 0.483 | 63.7 | – |

These binders were tested against T1, human GIP receptor (human) (assay: cell-based or functional assay).

| Binder | Relative cAMP EC50 [nM] | cAMP Rel EC50 (1% HSA) [nM] | cAMP Rel EC50, nM (in the presence of 1% HSA) [nM] |
| --- | --- | --- | --- |
| B1 | 0.0694 | 9.04 | – |
| B2 | 0.0592 | 6.31 | – |
| B3 | 0.0418 | 5.12 | – |
| B4 | 0.0723 | 19.5 | – |
| B5 | 0.09 | 13.9 | – |
| B6 | 0.0427 | 5.59 | – |
| B7 | 0.345 | – | 91 |
| B8 | 0.0312 | 4.23 | – |
| B9 | 0.101 | 3.89 | – |
| B10 | 0.187 | 12 | – |
| B11 | 0.173 | 3.95 | – |
| B12 | 0.0378 | 3.18 | – |
| B13 | 0.048 | 4.16 | – |
| B14 | 0.0441 | 3.73 | – |
| B15 | 0.0472 | 5.47 | – |

The binders below were run against human glucagon receptor (human) (UniProt P47871) (assay: cell-based or functional assay).
Chain of human glucagon receptor (human) (P47871 26-477): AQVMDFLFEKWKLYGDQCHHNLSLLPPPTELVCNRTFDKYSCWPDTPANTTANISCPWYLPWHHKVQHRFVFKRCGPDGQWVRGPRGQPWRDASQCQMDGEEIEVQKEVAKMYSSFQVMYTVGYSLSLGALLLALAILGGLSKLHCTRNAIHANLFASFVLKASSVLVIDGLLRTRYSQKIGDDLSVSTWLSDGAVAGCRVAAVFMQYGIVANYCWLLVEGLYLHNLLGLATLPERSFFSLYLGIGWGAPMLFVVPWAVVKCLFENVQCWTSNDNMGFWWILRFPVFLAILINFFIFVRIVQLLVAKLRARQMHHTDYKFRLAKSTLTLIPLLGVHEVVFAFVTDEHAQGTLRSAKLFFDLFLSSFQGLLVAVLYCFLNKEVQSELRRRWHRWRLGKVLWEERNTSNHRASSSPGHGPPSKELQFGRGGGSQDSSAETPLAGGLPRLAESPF

| Binder | Relative cAMP EC50 [nM] | cAMP Rel EC50 (1% HSA) [nM] | cAMP Rel EC50, nM (in the presence of 1% HSA) [nM] |
| --- | --- | --- | --- |
| B1 | 5.28 | 577 | – |
| B2 | 4.72 | 827 | – |
| B3 | 4.37 | 516 | – |
| B4 | 11.1 | 1350 | – |
| B5 | 11.1 | 1470 | – |
| B6 | 10.7 | 1260 | – |
| B7 | 6.26 | – | 2000 |
| B8 | 7.71 | 1030 | – |
| B9 | 5.53 | 441 | – |
| B10 | 6.97 | 400 | – |
| B11 | 5.83 | 264 | – |
| B12 | 9.88 | 869 | – |
| B13 | 6.11 | 796 | – |
| B14 | 13.3 | 1240 | – |
| B15 | 8.42 | 1140 | – |
